Data published in patent US20260242436A1 (HANMI PHARM, published 2026).
Changes are numbered by the printed parent chain.

T1: interleukin-2 alpha receptor (SYMANSIS, #4102H) to which a human immunoglobulin Fc region was linked (UniProt P01589 22-213, limits assumed)
T1 construct: Bought receptor-Fc, captured on anti-human immunoglobulin antibody; also called IL-2Rα; CD25; not shown: human immunoglobulin Fc region
T1 sequence (looked up): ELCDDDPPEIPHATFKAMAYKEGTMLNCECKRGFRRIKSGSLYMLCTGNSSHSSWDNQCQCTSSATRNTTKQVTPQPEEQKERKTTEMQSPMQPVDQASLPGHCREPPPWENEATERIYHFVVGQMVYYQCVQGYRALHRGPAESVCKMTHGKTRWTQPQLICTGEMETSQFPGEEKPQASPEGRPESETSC

T2: interleukin-2 beta receptor (SYMANSIS, #4122H) to which a human immunoglobulin Fc region was linked (UniProt P14784 27-239, limits assumed)
T2 construct: Bought receptor-Fc, captured on anti-human immunoglobulin antibody; also called IL-2Rβ; CD122; not shown: human immunoglobulin Fc region
T2 sequence (looked up): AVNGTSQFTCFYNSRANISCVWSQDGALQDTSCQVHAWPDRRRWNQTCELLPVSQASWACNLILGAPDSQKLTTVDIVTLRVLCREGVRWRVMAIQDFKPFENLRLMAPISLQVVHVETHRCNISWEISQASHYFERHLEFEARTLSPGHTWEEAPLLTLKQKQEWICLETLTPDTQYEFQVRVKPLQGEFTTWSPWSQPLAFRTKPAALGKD

B1: interleukin-2 analog 20 (ligand)
chain: PTSSSTKKTQLQLEHLLLDLQMILNGINNYKNPKLTAMLTKKFYMPKKATELKHLQCLEEELKPLEEVLNLAQSKNFHLRPRDVVSNINVFVLELKGSETTFMCEYADETATIVEFLNRWITFSQSIISTLT
B2: interleukin-2 analog 52 (ligand)
chain: B1 chain with L79F, R80D, V84L, V85I
B3: interleukin-2 analog 53 (ligand)
chain: B1 chain with L79F, R80D, D83E, V84L, V85I
B4: interleukin-2 analog 12 (ligand)
chain: B1 chain with V84L, V85I, F91I
B5: interleukin-2 analog 15 (ligand)
chain: B1 chain with D83E, V84L, V85I, F91I
B6: interleukin-2 analog 19 (ligand)
chain: B1 chain with R80D, V84L, V85I
B7: interleukin-2 analog 21 (ligand)
chain: B1 chain with L79F, R80D
B8: interleukin-2 analog 92 (ligand)
chain: B1 chain with A37R, K41F, L79F, R80E, V90T
B9: interleukin-2 analog 95 (ligand)
chain: B1 chain with A37R, K41F, V68G, L79F, R80E
B10: interleukin-2 analog 96 (ligand)
chain: B1 chain with A37R, K41F, V68G, Q73A, L79F, R80E
B11: interleukin-2 analog 97 (ligand)
chain: B1 chain with K41F, L79F, R80D, V84L, V85I
B12: interleukin-2 analog 98 (ligand)
chain: B1 chain with K41F, L79F, R80E, V85I
B13: interleukin-2 analog 100 (ligand)
chain: B1 chain with A37R, K41F, L79F, R80E, V84Y
B14: interleukin-2 analog 101 (ligand)
chain: B1 chain with A37R, K41F, L79F, R80E, V84L, V85A
B15: interleukin-2 analog 105 (ligand)
chain: B1 chain with L17R, Q21E, A37R, K41F, E67D, L79F, R80E
B16: interleukin-2 analog 99 (ligand)
chain: B1 chain with K41F, L79F, R80E, V84L
B17: interleukin-2 analog 17 (ligand)
chain: B1 chain with V84L, V85I, V90T, F91I
B18: interleukin-2 analog 35 (ligand)
chain: B1 chain with K41F, V84L, V85I, F91I, L93F, L95F
B19: interleukin-2 analog 88 (ligand)
chain: B1 chain with A37R, K41F, E60D, L79F, R80E
B20: interleukin-2 analog 91 (ligand)
chain: B1 chain with A37R, K41F, E60Q, L79F, R80E
B21: interleukin-2 analog 93 (ligand)
chain: B1 chain with A37R, K41F, L79F, R80E, D83E, V90T
B22: interleukin-2 analog 102 (ligand)
chain: B1 chain with A37R, K41F, L79F, R80E, F91I
B23: interleukin-2 analog 103 (ligand)
chain: B1 chain with L17R, Q21E, K41F, L79F, R80E
B24: interleukin-2 analog 104 (ligand)
chain: B1 chain with L17R, Q21E, A37R, K41F, E60D, L79F, R80E

Molecular target: T1, interleukin-2 alpha receptor (SYMANSIS, …)
Assay: SPR (Biacore T200); receptor-Fc captured on anti-human Ig CM5 chip

Binder | binding result
B1 | no binding
B2 | no binding
B3 | no binding
B4 | no binding
B5 | no binding
B6 | no binding
B7 | no binding

Molecular target: T2, interleukin-2 beta receptor (SYMANSIS, …)
Assay: SPR (Biacore T200); receptor-Fc captured on anti-human Ig CM5 chip, analog flowed; relative to analog 1 = 100%
Procedure: (§1) In order to measure the binding affinities of the interleukin-2 analogs obtained in Example 4 for each of interleukin-2 alpha and beta receptors, surface plasmon resonance (SPR, BIACORE T200, GE Healthcare) was used. The binding affinities of the prepared analogs for the alpha and beta receptors were measured, and the binding affinity of each of the prepared analogs was compared with that of interleukin-2 analog 1 (aldesleukin).
(§2) First, an anti-human immunoglobulin antibody (Abcam, #ab97221) was immobilized to a CM5 chip (GE healthcare) to about 5,000 resonance unit (RU) through amine coupling, and then the interleukin-2 alpha receptor ([…], #4102H) or interleukin-2 beta receptor ([…], #4122H), to each of which a human immunoglobulin Fc region was linked, was bound to the immunoglobulin antibody using an antigen-antibody binding reaction and thus finally immobilized. Thereafter, the recombinant interleukin-2 analog prepared above was diluted with HBS-P+ buffer (Cytiva, BR100671) to various concentrations by serial dilution, and the diluted samples were allowed to flow through CM5 chips, to which the interleukin-2 receptors were finally immobilized, to measure the binding affinity of each interleukin-2 receptor. […] Upon the completion of the measurement, the binding affinity of the receptor was evaluated according to the 1:1 binding fitting model in the Biaevaluation program.

Binder | Relative binding affinity (%)
B1 | 156
B2 | 3820
B3 | 691
B8 | 1510
B9 | 17.1
B10 | 229
B11 | 3020
B12 | 11100
B13 | 2530
B14 | 113
B15 | 26800
B16 | 1510
B4 | 166
B5 | 98.1
B17 | 9.4
B6 | 455
B7 | 14100
B18 | 233
B19 | 13900
B20 | 7360
B21 | 697
B22 | 4450
B23 | 13100
B24 | 25400

Molecular target: T1, interleukin-2 alpha receptor (SYMANSIS, …)
Assay: as above
Procedure: as §1, §2

Binder | Relative binding affinity (%)
B8 | 97.3
B9 | 10.7
B10 | 14.9
B11 | 18.8
B12 | 7.7
B13 | 29.1
B14 | 24.7
B15 | 247
B16 | 19.9
B17 | 29.6
B18 | 31.7
B19 | 102
B20 | 7.9
B21 | 92.8
B22 | 151
B23 | 6.1
B24 | 122
